In assay [1] the target is T1, Mesothelin Isoform 2 (IsoMSLN), antigen of the ELISA (human, UniProt Q13421 37-598).
T1 construct: also called MSLN Isoform 2; mesothelin isoform-2 polypeptide
Nature of the assay: ELISA.

The target of assay [2] is T2, Mesothelin (MSLN) Isoform 1, antigen of the ELISA (human, UniProt Q13421 296-598, limits assumed).
T2 construct: also called Mesothelin canonical polypeptide
The assay can be described thus: ELISA.

Data on one molecule can be found in patent US20240293544A1 (KIROMIC BIOPHARMA, published 2024).

T2 sequence (Q13421 other isoform, or with tags, fused parts or gaps limits assumed): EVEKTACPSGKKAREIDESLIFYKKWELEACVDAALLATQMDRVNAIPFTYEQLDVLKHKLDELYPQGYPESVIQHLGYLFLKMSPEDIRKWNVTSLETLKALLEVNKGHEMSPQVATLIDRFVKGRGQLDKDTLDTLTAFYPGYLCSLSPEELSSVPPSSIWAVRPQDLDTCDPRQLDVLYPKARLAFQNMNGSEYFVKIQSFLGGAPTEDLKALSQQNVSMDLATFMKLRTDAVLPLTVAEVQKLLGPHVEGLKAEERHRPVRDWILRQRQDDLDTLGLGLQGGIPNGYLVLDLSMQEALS
T1 sequence (Q13421 37-606 limits assumed, form in doubt): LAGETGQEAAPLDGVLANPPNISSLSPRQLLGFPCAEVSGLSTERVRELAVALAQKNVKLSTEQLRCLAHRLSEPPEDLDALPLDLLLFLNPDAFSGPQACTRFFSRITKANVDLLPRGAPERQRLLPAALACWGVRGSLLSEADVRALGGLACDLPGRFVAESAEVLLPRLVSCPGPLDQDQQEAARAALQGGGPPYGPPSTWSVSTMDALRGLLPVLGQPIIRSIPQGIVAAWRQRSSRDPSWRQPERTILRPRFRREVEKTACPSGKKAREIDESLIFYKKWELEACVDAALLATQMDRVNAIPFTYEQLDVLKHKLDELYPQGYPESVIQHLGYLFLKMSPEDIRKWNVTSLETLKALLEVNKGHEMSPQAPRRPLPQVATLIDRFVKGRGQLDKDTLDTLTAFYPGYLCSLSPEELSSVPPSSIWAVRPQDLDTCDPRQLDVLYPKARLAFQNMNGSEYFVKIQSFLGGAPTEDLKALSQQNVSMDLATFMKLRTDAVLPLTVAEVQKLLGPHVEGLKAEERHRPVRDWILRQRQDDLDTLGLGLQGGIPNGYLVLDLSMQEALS

B1: 1B6 monoclonal antibody (Binding Molecule A) (antibody, V domains shown)
VH: EVKLVESGGGLVKPGGSLKLSCEASGFTFSRYAMSWVRHTPEKRLAWVASITFGGDPYYPDGLKGRFTISRDNTRNILYLQMNSLRSEDTAMYYCVRHESWFAYWGQGTLVTVSA
VL: DVLMTQTPLSLPVSLGEQVSISCRSSQTIVHTDGNIYLEWYLQNPGQSPRLLIYKISNRFSGVPDRFSGSGSGTDFTLKISRVEAEDLGIYYCFQASHVPYTFGGGTKLEIK
notes: also called 1B6 antibody; 1B6 mAb
In assay [1], B1 yielded an EC50 of 0.073 µg/mL. Moreover, the binding result in assay [2] is on record as “no binding”.
